The target of this assay is OVA peptide 323-339 presented on MHC-II molecules (Gallus gallus (Chicken)) (UniProt P01012).

The sequence “T cell receptor of OT-II CD4+ T cells, specific for ovalbumin (OVA) peptide presented in the context of MHC-II molecules (TCR)” registered a proliferation (CTVlow) of OT-II CD4+ T cells after 5 days of co-culture with peptide-loaded PIP-induced cells of 10.7%.

(Values after patent US20240139239A1.)
